Test results taken from IntAct's records for PubMed 22653727.

How the values were obtained:
[1] = target: clock_mouse Clock (UniProt O08785)
[2] = target: clock_mouse Clock (UniProt O08785); remark: listed apart in the source
[3] = target: clock_mouse Clock (UniProt O08785); remark: listed apart in the source

clock_mouse Clock, sequence (O08785 whole entry): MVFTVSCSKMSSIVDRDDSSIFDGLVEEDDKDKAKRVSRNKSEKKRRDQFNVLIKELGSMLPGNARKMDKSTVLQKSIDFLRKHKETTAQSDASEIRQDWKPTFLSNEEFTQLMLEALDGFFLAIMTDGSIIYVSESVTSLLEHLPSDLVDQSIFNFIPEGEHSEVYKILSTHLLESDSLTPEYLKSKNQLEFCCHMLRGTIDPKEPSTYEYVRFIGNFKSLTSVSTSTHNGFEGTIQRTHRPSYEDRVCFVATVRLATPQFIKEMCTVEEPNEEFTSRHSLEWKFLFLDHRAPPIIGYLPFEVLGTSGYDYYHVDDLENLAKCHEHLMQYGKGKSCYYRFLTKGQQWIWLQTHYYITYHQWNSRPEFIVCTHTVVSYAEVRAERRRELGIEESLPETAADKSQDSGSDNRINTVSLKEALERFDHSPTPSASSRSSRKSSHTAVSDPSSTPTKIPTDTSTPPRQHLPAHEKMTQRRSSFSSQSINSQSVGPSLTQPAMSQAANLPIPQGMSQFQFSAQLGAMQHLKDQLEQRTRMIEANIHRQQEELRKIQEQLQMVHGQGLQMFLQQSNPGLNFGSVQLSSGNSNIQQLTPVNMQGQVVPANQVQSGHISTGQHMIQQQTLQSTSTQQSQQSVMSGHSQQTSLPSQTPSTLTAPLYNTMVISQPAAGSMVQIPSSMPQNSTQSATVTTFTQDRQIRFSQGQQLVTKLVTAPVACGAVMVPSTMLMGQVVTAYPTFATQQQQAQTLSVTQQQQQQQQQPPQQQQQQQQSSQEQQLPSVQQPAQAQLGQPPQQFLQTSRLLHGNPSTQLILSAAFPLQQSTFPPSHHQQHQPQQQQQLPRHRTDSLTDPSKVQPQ
Basic helix-loop-helix ARNT-like protein 1 (Mus musculus), Q9WTL8-4 L95E, sequence (Q9WTL8 other isoform, or with tags, fused parts or gaps L95E): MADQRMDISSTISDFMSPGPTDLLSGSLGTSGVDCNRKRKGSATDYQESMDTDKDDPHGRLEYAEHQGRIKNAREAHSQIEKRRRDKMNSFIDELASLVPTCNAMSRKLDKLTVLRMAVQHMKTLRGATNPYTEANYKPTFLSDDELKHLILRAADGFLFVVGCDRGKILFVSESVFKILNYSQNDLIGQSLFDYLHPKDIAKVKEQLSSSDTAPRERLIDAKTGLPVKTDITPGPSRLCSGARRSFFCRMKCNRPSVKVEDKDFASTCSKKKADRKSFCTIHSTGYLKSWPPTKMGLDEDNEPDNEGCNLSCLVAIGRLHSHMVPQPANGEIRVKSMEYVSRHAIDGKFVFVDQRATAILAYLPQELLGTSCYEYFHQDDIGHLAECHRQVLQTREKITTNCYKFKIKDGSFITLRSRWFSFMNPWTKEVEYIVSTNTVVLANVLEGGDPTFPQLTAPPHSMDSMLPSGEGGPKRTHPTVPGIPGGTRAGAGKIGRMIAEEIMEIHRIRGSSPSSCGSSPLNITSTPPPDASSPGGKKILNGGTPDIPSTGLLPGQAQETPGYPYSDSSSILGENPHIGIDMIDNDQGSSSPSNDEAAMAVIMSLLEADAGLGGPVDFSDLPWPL
Basic helix-loop-helix ARNT-like protein 1 (Mus musculus), Q9WTL8-4 F423R;V435R, sequence (Q9WTL8 other isoform, or with tags, fused parts or gaps F423R;V435R): as the sequence (Q9WTL8 other isoform, or with tags, fused parts or gaps L95E) above
Basic helix-loop-helix ARNT-like protein 1 (Mus musculus), Q9WTL8-4 I317D, sequence (Q9WTL8 other isoform, or with tags, fused parts or gaps I317D): as the sequence (Q9WTL8 other isoform, or with tags, fused parts or gaps L95E) above
Basic helix-loop-helix ARNT-like protein 1 (Mus musculus), Q9WTL8-4 L150E, sequence (Q9WTL8 other isoform, or with tags, fused parts or gaps L150E): as the sequence (Q9WTL8 other isoform, or with tags, fused parts or gaps L95E) above
Basic helix-loop-helix ARNT-like protein 1 (Mus musculus), Q9WTL8-4 L95E;L150E;W427A, sequence (Q9WTL8 other isoform, or with tags, fused parts or gaps L95E;L150E;W427A): as the sequence (Q9WTL8 other isoform, or with tags, fused parts or gaps L95E) above
Basic helix-loop-helix ARNT-like protein 1 (Mus musculus), Q9WTL8-4 F423R, sequence (Q9WTL8 other isoform, or with tags, fused parts or gaps F423R): as the sequence (Q9WTL8 other isoform, or with tags, fused parts or gaps L95E) above
Basic helix-loop-helix ARNT-like protein 1 (Mus musculus), Q9WTL8-4 W427A, sequence (Q9WTL8 other isoform, or with tags, fused parts or gaps W427A): as the sequence (Q9WTL8 other isoform, or with tags, fused parts or gaps L95E) above
Basic helix-loop-helix ARNT-like protein 1 (Mus musculus), Q9WTL8-4 V435R, sequence (Q9WTL8 other isoform, or with tags, fused parts or gaps V435R): as the sequence (Q9WTL8 other isoform, or with tags, fused parts or gaps L95E) above
Basic helix-loop-helix ARNT-like protein 1 (Mus musculus), Q9WTL8-4 L115E, sequence (Q9WTL8 other isoform, or with tags, fused parts or gaps L115E): as the sequence (Q9WTL8 other isoform, or with tags, fused parts or gaps L95E) above

For “Basic helix-loop-helix ARNT-like protein 1 (Mus musculus), Q9WTL8-4 L115E”, the “effect of a mutation on the interaction” value [1] was “disrupting interaction strength”.

“Basic helix-loop-helix ARNT-like protein 1 (Mus musculus), Q9WTL8-4 F423R” was tested, and the “effect of a mutation on the interaction” value [2] was “decreasing interaction strength” and the “effect of a mutation on the interaction” value [1] was “with no effect”.

“Basic helix-loop-helix ARNT-like protein 1 (Mus musculus), Q9WTL8-4 V435R” was tested, and the “effect of a mutation on the interaction” value [2] was “disrupting interaction strength” and the “effect of a mutation on the interaction” value [1] was “with no effect”.

“Basic helix-loop-helix ARNT-like protein 1 (Mus musculus), Q9WTL8-4 L150E” was tested, and the “effect of a mutation on the interaction” value [3] was “decreasing interaction strength” and the “effect of a mutation on the interaction” value [1] was “with no effect”.

With “Basic helix-loop-helix ARNT-like protein 1 (Mus musculus), Q9WTL8-4 I317D” the “effect of a mutation on the interaction” value [2] was “decreasing interaction strength” and the “effect of a mutation on the interaction” value [1] was “disrupting interaction strength”.

For “Basic helix-loop-helix ARNT-like protein 1 (Mus musculus), Q9WTL8-4 W427A”, the “effect of a mutation on the interaction” value [2] was “with no effect” and the “effect of a mutation on the interaction” value [1] was “decreasing interaction strength”.

“Basic helix-loop-helix ARNT-like protein 1 (Mus musculus), Q9WTL8-4 L95E;L150E;W427A” was tested, and the “effect of a mutation on the interaction” value [2] was “disrupting interaction strength” and the “effect of a mutation on the interaction” value [1] was “disrupting interaction strength”.

In the case of “Basic helix-loop-helix ARNT-like protein 1 (Mus musculus), Q9WTL8-4 L95E”, the “effect of a mutation on the interaction” value [2] is reported as “with no effect” and the “effect of a mutation on the interaction” value [1] is reported as “disrupting interaction strength”.

In the case of “Basic helix-loop-helix ARNT-like protein 1 (Mus musculus), Q9WTL8-4 F423R;V435R”, the “effect of a mutation on the interaction” value [2] is reported as “disrupting interaction strength” and the “effect of a mutation on the interaction” value [1] is reported as “decreasing interaction strength”.
